Data published in patent US20200392227A1 (LYVGEN BIOPHARMA, published 2020).
Where a chain is given by its changes, count along the chain named. Read-outs that look alike come from different tables or passages of the source.

B1: anti-CD137 IgG2 with Fc variant G2m5 (antibody)
heavy: EVQLVQSGAEVKKPGESLRISCKGSGYSFSTYWISWVRQMPGKGLEWMGKIYPGDSYTNYSPSFQGQVTISADKSISTAYLQWSSLKASDTAMYYCARGYGIFDYWGQGTLVTVSSASTKGPSVFPLAPCSRSTSESTAALGCLVKDYFPEPVTVSWNSGALTSGVHTFPAVLQSSGLYSLSSVVTVPSSNFGTQTYTCNVDHKPSNTKVDKTVERKCCVECPPCPAPPVAGPSVFLFPPKPKDTLMISRTPEVTCVVVDVSHEDPEEQFNWYVDGVEVHNAKTKPREEQFNSTFRVVSVLTVVHQDWLNGKEYKCKVSNKGLPAPIEKTISKTKGQPREPQVYTLPPSREEMTKNQVSLTCLVKGFYPSDIAVEWESNGQPENNYKTTPPMLDSDGSFFLYSKLTVDKSRWQQGNVFSCSVMHEALHNHYTQKSLSLSPGK
light: SYELTQPPSVSVSPGQTASITCSGDNIGDQYAHWYQQKPGQSPVLVIYQDKNRPSGIPERFSGSNSGNTATLTISGTQAMDEADYYCATYTGFGSLAVFGGGTKLTVLGQPKAAPSVTLFPPSSEELQANKATLVCLISDFYPGAVTVAWKADSSPVKAGVETTTPSKQSNNKYAASSYLSLTPEQWKSHRSYSCQVTHEGSTVEKTVAPTECS
notes: copies: 2 + 2
B2: anti-CD137 IgG2 with Fc variant G2m17 (antibody)
heavy: EVQLVQSGAEVKKPGESLRISCKGSGYSFSTYWISWVRQMPGKGLEWMGKIYPGDSYTNYSPSFQGQVTISADKSISTAYLQWSSLKASDTAMYYCARGYGIFDYWGQGTLVTVSSASTKGPSVFPLAPCSRSTSESTAALGCLVKDYFPEPVTVSWNSGALTSGVHTFPAVLQSSGLYSLSSVVTVPSSNFGTQTYTCNVDHKPSNTKVDKTVERKCCVECPPCPAPPVASVFLFPPKPKDTLMISRTPEVTCVVVDVEHEDPEVQFNWYVDGVEVHNAKTKPREEQFNSTFRVVSVLTVVHQDWLNGKEYKCKVSNKGLPAPIEKTISKTKGQPREPQVYTLPPSREEMTKNQVSLTCLVKGFYPSDIAVEWESNGQPENNYKTTPPMLDSDGSFFLYSKLTVDKSRWQQGNVFSCSVMHEALHNHYTQKSLSLSPGK
light: B1 light
notes: copies: 2 + 2
B3: anti-CD137 IgG2 with Fc variant G2m19 (antibody)
heavy: B2 heavy with L321F
light: B1 light
notes: copies: 2 + 2
B4: anti-CD137 IgG2 with Fc variant G2m20 (antibody)
heavy: EVQLVQSGAEVKKPGESLRISCKGSGYSFSTYWISWVRQMPGKGLEWMGKIYPGDSYTNYSPSFQGQVTISADKSISTAYLQWSSLKASDTAMYYCARGYGIFDYWGQGTLVTVSSASTKGPSVFPLAPCSRSTSESTAALGCLVKDYFPEPVTVSWNSGALTSGVHTFPAVLQSSGLYSLSSVVTVPSSNFGTQTYTCNVDHKPSNTKVDKTVERKCCVECPPCPAPPVAPSVFLFPPKPKDTLMISRTPEVTCVVVDVSHEDPEVQFNWYVDGVEVHNAKTKPREEQFNSTFRVVSVLTVVHQDWLNGKEYKCKVSNKGLPAPIEKTISKTKGQPREPQVYTLPPSREEMTKNQVSLTCLVKGFYPSDIAVEWESNGQPENNYKTTPPMLDSDGSFFLYSKLTVDKSRWQQGNVFSCSVMHEALHNHYTQKSLSLSPGK
light: B1 light
notes: copies: 2 + 2
B5: anti-CD137 IgG2 with Fc variant G2m28 (antibody)
heavy: B4 heavy with S261E
light: B1 light
notes: also called Gbn28; copies: 2 + 2

Assays:
[1] = biological target: T1, human FcRI protein (MednaBio, E1031) (human, UniProt P12314 16-288, limits assumed); assay: BLI
T1 construct: Bought; loaded on anti-penta-HIS biosensors; also called FcγRI
How it was run: (§1)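 Binding was measured by biolayer interferometry on an Octet Red96 System, with commercial human Fc receptor proteins loaded at 20 μg/mL onto anti-penta-HIS biosensors. Sensors were dipped into an 8-point 1:3 dilution series of test IgG starting at 300 nM in PBS with 0.1% BSA and 0.02% Tween-20. Fcγ receptor assays ran at pH 7.2 and FcRn assays at pH 6. Kd, kon and koff came from global fitting to a 1:1 binding model.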

[2] = biological target: T2, human FcRIIA protein (MednaBio, E1033) (human, UniProt P12318 34-218, limits assumed); assay: BLI
T2 construct: Bought; also called FcγRIIA
T2 sequence (looked up): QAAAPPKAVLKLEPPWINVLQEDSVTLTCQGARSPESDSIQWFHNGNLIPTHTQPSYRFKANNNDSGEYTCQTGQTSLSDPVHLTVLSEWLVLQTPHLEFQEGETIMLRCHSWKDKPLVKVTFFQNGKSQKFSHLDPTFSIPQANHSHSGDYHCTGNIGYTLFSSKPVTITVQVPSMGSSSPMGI
How it was run: as §1

[3] = biological target: T3, human FcRIIB/C protein (MednaBio, E1034) (human, UniProt P31994 43-217, limits assumed); assay: BLI
T3 construct: Bought as FcRIIB/C; also called FcγRIIB; CD32B
T3 sequence (looked up): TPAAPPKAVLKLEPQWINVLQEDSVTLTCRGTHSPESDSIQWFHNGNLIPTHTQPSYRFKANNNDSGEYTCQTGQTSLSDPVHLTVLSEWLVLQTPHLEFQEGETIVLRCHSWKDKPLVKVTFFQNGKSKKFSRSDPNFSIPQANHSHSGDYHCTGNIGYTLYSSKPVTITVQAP
How it was run: as §1

[4] = biological target: T4, human FcRIIIA-F158 protein (MednaBio, E1036) (human, UniProt P08637 17-208); assay: BLI
T4 construct: Bought; also called FcγRIIIA(F)
How it was run: as §1

[5] = biological target: T5, human FcRIIIA-V158 protein (MednaBio, E1035) (human, UniProt P08637 17-208); assay: BLI
T5 construct: Bought; also called FcγRIIIA(V); FcgRIIIA(V)
How it was run: as §1

[6] = biological target: T6, human FcRIIIB protein (MednaBio, E1037) (human, UniProt O75015 17-200); assay: BLI
T6 construct: Bought; also called FcγRIIIB; FcgRIIIB
How it was run: as §1

[7] = biological target: T7, human FcRn protein (MednaBio, E1032) (human, UniProt P55899 24-297; P61769 21-119); assay: BLI
T7 construct: Bought; assays at pH 6
How it was run: as §1

[8] = biological target: T8, human FcγRIIA(R131) expressed on CHO cells (human, UniProt P12318 34-317); assay: FACS, CHO cells expressing FcγRIIA(R131)
T8 construct: whole, on cells
T8 sequence (looked up): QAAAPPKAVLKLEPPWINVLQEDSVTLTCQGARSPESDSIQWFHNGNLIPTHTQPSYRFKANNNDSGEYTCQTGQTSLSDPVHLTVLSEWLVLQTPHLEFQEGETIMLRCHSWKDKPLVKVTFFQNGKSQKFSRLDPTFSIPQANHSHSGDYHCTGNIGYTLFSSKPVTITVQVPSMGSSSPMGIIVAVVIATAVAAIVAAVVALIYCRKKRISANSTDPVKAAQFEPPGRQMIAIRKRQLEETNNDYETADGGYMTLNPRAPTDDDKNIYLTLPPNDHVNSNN
Procedure: For FACS analysis of the IgG mutants' binding to different FcγRs, FcγR overexpressing CHO cells were harvested using trypsin-EDTA and were suspended in cold staining buffer (3% BSA in PBS). Test IgG mutants, which were diluted in staining buffer, were added into the cells. The mixture was incubated 4° C. for 2 hours, and then washed twice with cold staining buffer and re-suspended in PE-labeled anti-human IgG followed by incubation at 4° C. for 2 hours. The mixture was washed twice with staining buffer and re-suspended in 2% PFA in PBS for FACS.

[9] = biological target: T1, human FcRI protein (MednaBio, E1031); assay: BLI; remark: listed apart in the source
How it was run: as §1

[10] = biological target: T2, human FcRIIA protein (MednaBio, E1033); assay: BLI; remark: listed apart in the source
How it was run: as §1

[11] = biological target: T3, human FcRIIB/C protein (MednaBio, E1034); assay: BLI; remark: listed apart in the source
How it was run: as §1

[12] = biological target: T4, human FcRIIIA-F158 protein (MednaBio, …); assay: BLI; remark: listed apart in the source
How it was run: as §1

[13] = biological target: T5, human FcRIIIA-V158 protein (MednaBio, …); assay: BLI; remark: listed apart in the source
How it was run: as §1

[14] = biological target: T6, human FcRIIIB protein (MednaBio, E1037); assay: BLI; remark: listed apart in the source
How it was run: as §1

[15] = biological target: T7, human FcRn protein (MednaBio, E1032); assay: BLI; remark: listed apart in the source
How it was run: as §1

[16] = biological target: T9, human FcγRI expressed on CHO cells (human, UniProt P12314 16-374); assay: FACS, CHO cells expressing FcγRI
T9 construct: whole, on cells
How it was run: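 Trypsin-harvested CHO cells overexpressing each FcγR were incubated 2 h at 4 °C with IgG mutants in 3% BSA/PBS. Bound IgG was detected with PE-labeled anti-human IgG (2 h, 4 °C), then cells were fixed in 2% PFA and analysed by flow cytometry.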

T4 sequence (P08637 17-208 limits assumed): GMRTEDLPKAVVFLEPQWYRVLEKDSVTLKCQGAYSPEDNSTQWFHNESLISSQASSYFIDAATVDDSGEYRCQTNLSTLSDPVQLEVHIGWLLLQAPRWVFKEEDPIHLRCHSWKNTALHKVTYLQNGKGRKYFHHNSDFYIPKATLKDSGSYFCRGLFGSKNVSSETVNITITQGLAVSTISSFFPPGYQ
T1 sequence (P12314 16-288 limits assumed): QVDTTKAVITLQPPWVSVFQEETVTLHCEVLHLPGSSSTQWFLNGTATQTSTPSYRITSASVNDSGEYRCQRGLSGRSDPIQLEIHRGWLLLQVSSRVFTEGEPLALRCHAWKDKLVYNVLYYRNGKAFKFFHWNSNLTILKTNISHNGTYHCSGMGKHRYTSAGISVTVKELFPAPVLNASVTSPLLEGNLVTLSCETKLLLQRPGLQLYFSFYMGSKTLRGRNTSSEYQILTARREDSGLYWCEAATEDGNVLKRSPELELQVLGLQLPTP
T6 sequence (O75015 17-200 limits assumed): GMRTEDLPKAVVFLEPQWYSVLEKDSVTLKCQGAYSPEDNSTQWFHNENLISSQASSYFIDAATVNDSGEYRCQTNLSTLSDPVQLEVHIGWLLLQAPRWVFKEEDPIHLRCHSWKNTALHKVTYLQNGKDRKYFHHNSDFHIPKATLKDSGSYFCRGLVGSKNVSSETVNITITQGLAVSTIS
T5 sequence (P08637 17-208 F176V): as the sequence (P08637 17-208 limits assumed) above, with F160V counted along it
T7 sequence (P55899 24-297 limits assumed, form in doubt, chain 1 of 2): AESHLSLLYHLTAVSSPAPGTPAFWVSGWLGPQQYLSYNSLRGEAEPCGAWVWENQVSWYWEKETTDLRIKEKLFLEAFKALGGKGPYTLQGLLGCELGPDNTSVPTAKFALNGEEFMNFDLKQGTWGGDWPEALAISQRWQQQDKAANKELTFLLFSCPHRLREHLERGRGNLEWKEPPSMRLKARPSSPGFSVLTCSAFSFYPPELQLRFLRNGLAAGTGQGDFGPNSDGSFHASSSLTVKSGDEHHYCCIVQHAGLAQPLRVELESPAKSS
T7 sequence (P61769 21-119 limits assumed, form in doubt, chain 2 of 2): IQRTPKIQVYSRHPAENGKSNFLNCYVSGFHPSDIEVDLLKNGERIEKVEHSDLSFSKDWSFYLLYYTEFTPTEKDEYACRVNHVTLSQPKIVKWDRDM
T9 sequence (P12314 16-374): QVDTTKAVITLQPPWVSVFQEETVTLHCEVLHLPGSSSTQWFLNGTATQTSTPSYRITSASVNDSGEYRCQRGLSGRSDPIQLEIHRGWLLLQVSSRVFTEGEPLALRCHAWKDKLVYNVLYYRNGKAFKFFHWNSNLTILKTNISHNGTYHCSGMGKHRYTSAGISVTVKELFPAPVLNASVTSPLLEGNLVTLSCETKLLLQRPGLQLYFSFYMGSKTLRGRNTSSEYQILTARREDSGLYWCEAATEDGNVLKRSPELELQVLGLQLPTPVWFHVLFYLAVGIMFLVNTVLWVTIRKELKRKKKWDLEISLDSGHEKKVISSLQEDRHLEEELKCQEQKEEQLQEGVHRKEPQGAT

Row | Binder | Kd [9] [nM] | koff [9] [s⁻¹] | kon [9] [M⁻¹ s⁻¹] | Kd [10] [nM] | koff [10] [s⁻¹] | kon [10] [M⁻¹ s⁻¹] | Kd [11] [nM] | koff [11] [s⁻¹] | kon [11] [M⁻¹ s⁻¹] | Kd [12] [nM] | koff [12] [s⁻¹] | kon [12] [M⁻¹ s⁻¹] | Kd [13] [nM] | koff [13] [s⁻¹] | kon [13] [M⁻¹ s⁻¹] | Kd [15] [nM] | koff [15] [s⁻¹] | kon [15] [M⁻¹ s⁻¹] | binding result [9] | binding result [14] | other results
1 | B1 |  |  |  |  |  |  |  |  |  |  |  |  |  |  |  |  |  |  |  |  | binding result [1]: no binding (tested: 300 nM); Kd [2]: 230 nM; koff [2]: 0.14 s⁻¹; kon [2]: 600000 M⁻¹ s⁻¹; Kd [3]: 310 nM; koff [3]: 0.12 s⁻¹; kon [3]: 390000 M⁻¹ s⁻¹; binding result [4]: no binding (tested: 300 nM); binding result [5]: no binding (tested: 300 nM); binding result [6]: no binding (tested: 300 nM); Kd [7]: 14 nM; koff [7]: 0.011 s⁻¹; kon [7]: 800000 M⁻¹ s⁻¹; binding result [8]: no binding (tested: 10 ug/ml)
2 | B2 | 253 | 0.277 | 1.09e+06 | 422 | 0.274 | 648000 | 236 | 0.0848 | 361000 | 168 | 0.262 | 1.56e+06 | 153 | 0.205 | 1.34e+06 | 7.46 | 0.0139 | 1.87e+06 |  |  | Kd [14]: 117 nM; koff [14]: 0.204 s⁻¹; kon [14]: 1.74e+06 M⁻¹ s⁻¹
3 | B3 |  |  |  | 336 | 0.0836 | 249000 | 240 | 0.0387 | 162000 |  |  |  |  |  |  | 35.4 | 0.00941 | 265000 | no binding (tested: 300 nM) | no binding (tested: 300 nM) | binding result [12]: no binding (tested: 300 nM); binding result [13]: no binding (tested: 300 nM); binding result [16]: no binding (tested: 10 ug/mL)
4 | B4 |  |  |  | 829 | 0.0165 | 19900 | 517 | 0.0915 | 176000 | 917 | 0.013 | 14300 | 1260 | 0.0149 | 11800 | 57.6 | 0.0122 | 212000 | no binding (tested: 300 nM) | no binding (tested: 300 nM) | 
5 | B5 | 66.1 | 0.098 | 1.49e+06 | 191 | 0.0898 | 470000 | 256 | 0.0464 | 181000 | 527 | 0.257 | 487000 |  |  |  | 26.4 | 0.0195 | 737000 |  | no binding (tested: 300 nM) | binding result [13]: no binding (tested: 300 nM)
